Experiment: protease stability score; higher = more stable; yeast display proteolysis, trypsin and chymotrypsin;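 also: log10 excess protease needed over predicted unfolded state with 0 meaning unfolded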

Point of comparison: “DEEIVKLVEEQARAEKTNDDKRLNELFDKDAKVDVGDKSYHGTEELHKLVHRTMHRMRFDLRTYRIDHEGDRAVMNYNLVFDINGRPDHYHVIFRAHMHNGRIKHQSVSVDPEQKKRFDS”, protease stability score -0.023. Against it:
- DEEIKRHIKEMMEAISHGDPDQLRRLFDPNVDIRVGDKEITGMEEYLHQLKHKLDSAEFEYKHYEVKVRNGSVRARYEYIVRINGRPNSVTAEVEIKMTNGKAKHAVYRFSDEDKKRLEG — higher, 0.698
- DEEILNKAVEALRVEHQGNRKDLKRMFDPNAKRRVGDKTITGMDNLLKELSDKRRHLNVDVKIDSLHAEGNRVELDVSQRQNTNGQPSEFRAKIVITVKNGRMVDVTIHRTK — higher, -0.016
- DEEINKQIRTMIESRTHGDEEDELRNADPNAKFRIGDKDYHGKEELKKWVKTQHDQAHVEFIIRSVRVHGNKVSMDMQVVLNVNGRPETIDASMSAEVDNGRFKRIDIHLDPDRVRTALQ — higher, 1.16
- DEEINTIAEEFMKAFQHNNPDKMRNLADENAQFRIGDDKIHGMETYAKEVKKENREQRVEFQIKDLKVQGNTVDMDVSFEVERNGQPHRFEVKLHFNFHNGKLKTLQWNTDG — lower, -0.078
- DEEIQKLIDDALKAYERGNEDQQAELFDENARVRIGDQTLHGREDLKEHLKRVKDHINFRIESYDVKVHNGRMHATLTLVMQIDGQPDQWSVHLRADVNNGRIKHFEMDMDPEKQRELTK — lower, -0.044
- DEEIRDEIKKYFKALETGDPDKMREMFDPNAKVQVGDKVYHGMSEAARHWVRRAEKIRIEIQDLNIDVHGEDVVVEQVLVEDKNGRPQRKTERLTMDVEDGRVKRAHRHSVK — higher, 0.186
- DEEIVELIKKVLEAIEEGDETRLKKLFDPNAEFEIGDKKLHGMENAAKEWRKQRQQMEIRIKSVHFEVRGERVIVKFKVEYDHNGRPSTMTVHIVALAHNGKMTYFSQKVTQ — higher, 0.826
- DEEIVKLLKRLIKAEKNGNPDEIRKNLDPNVRYVVGERTITGREEFVRDQQRRDDQMRVEFQSVQLRQKGDKAVIHQQAVYRHNGRPKTNHQHISIQAKNGKVKDQKVEVKE — higher, 0.069
- DEEKAKHRVEEFTQLLQENDWDHLANMADENARVQVGDQVYDGRKDIERWAKQVKERVDNVTVKEMSVSGNKMNANVEFQINGVTVRATIEIDFHNGKAKHMRVDPDVVRKQSR — higher, 0.727
- DEEKAQRLMKTLMDYIKNGNADKAQQMLKEGGKVKFGDEEVEGPEEMKKYVKKFKDKGIETHYKEEKFEGNTATVHTEAKLGNAKVEFEAHYEAKGDKVVRAEVKYDEDQYEKFKKS — lower, -0.286
- DEEKATEQAKEAIKALHTGDPRTMVEMLDKDARLRVGDNEYKGRDKVRNAMEEFTKRADSVRVDSVSVHGDKAVIHFKVRYNGQTIEVVLSLSVTNGRIVKAELDYRDEDTLRRLQK — higher, 1.11
- DEEKDEDFARKVLQAVQTGDHDKIKKMADPNASATIGDKTWHGREQLSEAIRRWKEEADRVDVKSVSVQGDRASADMKVQHNGKMTDVRVFVEASNGRLKKLEIDTK — higher, 1.16
- DEEKDEDVARQVAHAAATGDTKRLVELMRDNVRFQIGDKTFSGRENLSKAMERIDKHVDHLEVKSIEAHGDTVRADVTMTVNGKTHVVKIEAVVHNGHARELVLHDR — higher, 0.06
- DEEKDEKIRKWQTNVKHGNEDEIRKNADKDAHVHVGDKQYHGHHRIRKLMTNERRKMRVDQKIETVSANNGRATVIVSATFDVNGQPLTDRENVVLIMHNGKIQEVRVDMDPDLHRQLQS — lower, -0.51
- DEEKDQKLATDLSDVIKTGDKEKMVKMADPNARIIVGDRVYHGREVILRWVRTLRERVDRIQIDSYDARDGKVRIIFQVRFDGRTTKIDLVVQYDNGHAKKIEVREK — higher, 0.075
- DEEKEATKQVSEWIENMKSGDEDRLRELADKNAKVRYGDEEVHGMDQAAERWRNQRQKYDSLEVEVRDLKNHNGQVVVDQVERFNHNGKTDQRRVIITMERRPNHFVVQEVVQP — lower, -0.331
- DEEKEDKLLLKFARVVLQNNPEDLTRLMDPNAHLEVGDQTWHGREQVSDVLSKFAKRVDEVEVEDYDKRGNDLKVVMTLNINGKNIKVNLTFVVSNGRVTNVRLDPEAQKKIEK — higher, 0.37
- DEEKEETTVEKLAKAVNTGDPDQIEDLADKDVRATIGDRQVHGREEMDRNMKEWEDKIDHLELKSVDVQGESAHANLDQRHNGRHVRMVAIAHVENGRAVEVVFRDQ — lower, -0.157
- DEEKEFHKMIKELDKVAKRNDEQSVQNLADKDVEVTYGDKSYHGREVLRRMFRDQLTRADKVRITMKSYTVRGDKAHAVLNVVLDHNGRQEHIDVKVTAQADNGRVRLKHVNIP — lower, -0.039
- DEEKEKEAADRASTNDPDEFRKMVDEDARVVVGEKQWHGREKVQKFYEDQKKRIDHLRVEHVDKDGNRVVITQFYQVNGVRVHAIFIITVHNGRLKMRSVQFTDEHAERRMKKAVS — higher, 0.528
- DEEKEKRTARQVADVLRSGNPDEMMKLADKDAEVRVGDHVLHGREEISKLMHELRRRIDHLEIKHVEVDNGSVNIVYVVRHNGKTEVVVLHVDFHNGKIREMTVRSG — higher, 1.36
- DEEKENRDIQTLMKNMVTGNEQEVMKNADKNVNLVVGDKTYHGREKIREFVRQLRERADHQEIKSVHATNGRAQADMVVNVNGKDIRFTVTMEASNGKAKHIQFDPNFFRKIQS — lower, -0.079
- DEEKEREMFKEFLNAFKSGDPDKLRKRMRQNVTLVYGDKSLHGRERAAKWFSELVKRVDHIEIESVKTDENHFDADVHLNVNGQNVIVHIRAKVENGRIVKVQYEYRDESQRRKLEK — higher, 1.18
- DEEKHAESAIHHIIKVFKENNPDQFRRNADPNVKVNVGEHEVDGRDDLAKYMVDEANRVDHASYEIVHLDVRGDKARARVRVIVKFDGQERKYEYVFVFVEQNGEVVITKVQHQ — higher, 1.1
- DEEKHAKEMADRFRKILDNGNEHSVEKMFDENARMSVGDRTIHGREKIAKKLITDVRRVDHLQVKVLSYHAHGDKIDLKVQQTLVVNGEDETRRYQMHLTRVNGRFVAVDAREQ — lower, -0.07
- DEEKHAKEVLDKFLKIAQEGDPKKMHELVDPNATFQVGDKEVHGRESAIESLQKFLEKVDHMRLEITEVRVRGNKFNIVAKLRADINGQKVDKRLIIVFTHHNGRLQMSHLRMD — higher, 2.34
- DEEKHDDFARKLVRAVQSNDFRQQEKMFRQDVRMRVGDKEVHGREQFRDWLRTLDEEVDRYEVKSVTAQGDKVKIVAVFRINGKQFTLTVTIHVSNGKAVNMRINPDQQRQQER — higher, 0.104
- DEEKHKQKLRKFAKDFVEGDPEEISKNVDEDVKVHIGDQDVSGREEAMKVIEEIKKRADHIQITSVEASNGRLRINVVIQVNGRNVTAHVTVDADNGRVKKVTMDPDQVRKLKS — higher, 0.827
- DEEKIAQKAVDRVEEAMNRGDPDTMKHLLDKDARITYGDQQYHGREEVIKFMDEFVENVDHVNVEFKEVEVHNGRARASARVVYTHNGQSHDVKLEVVFLIQGDEVRLTHLHYG — higher, 2.11
- DEEKIARHVVRTWMENLKTGNFKEIEKMIDKDVEFEIGDKTVTGREEVRKRRKHEKDQADHIEVQVHDVRARGDKVNIDVVMEINNNGRTTTRRFVLVLSIHNGHAKIKMVTQG — higher, 1.09
- DEEKIDRLLHEVVKAYLSGHSEKLKKLLKEDGQLHALSQTYHGKEQVMKVAEEFKRYGVELQIQDQKTEGDTLKVKAQAHKGGTTWEFEVKVKADGGKADELTIKVSEEAHKMIQRG — lower, -0.298
- DEEKIKQLLQKMIQYYVSGNKDHLKQLGKDDVQLHAADQTYHGLDQLLKVAEQFKKYGVKLEVKDVKVDGNTIHADVEVTMGGTQWTFKVTAEADGGKVDKVQFDVSEEAKKRIQKG — higher, 0.959
- DEEKILKIIDRAVKAIQNGNEEEIRKLGMPNGEAQVGNDRNHGQDALVVMVKMYQKLGNEFEYKEKREEGDQVTTVVQVTFGGTTVEYEVNVQAEGGHIKRWEVRVDETFMKHVEKS — lower, -0.125
- DEEKILQDLIKTYQDLAKTNDFESMAKEADEDAHVNIGDKEVHGRESLNKHFRQLQKEVDHVEVDVRDYRVHGDKFEIKFVVNNQRDGQTDRKTVRIEYVQNGDKVRAKSFTTG — lower, -0.176
- DEEKILRVLKEVVKAIQNGNKEEVRKKGKPDVEVQLADERNRGVDQLVRLAEFDKKLGVQFEYKETRQKGGKMTTVVEVTLDGTTIRYEVHVEAEGGKVKRWEVRMDKKFIRIAQES — higher, 0.077
- DEEKKANHFNKEFDRNVQRNNETELRKMVDPNARVNVGEQNYSGRNKMVKIITDWLRKYDKFTIDVRRIDVHGNRIFIDFEMVVVSNGQRRTTEIRVVVEEHNGRLHIRVWEIT — higher, 0.516
- DEEKKARQALKNLVQNLRTGDEDELRKMIDKDATVRVGDEEIHGRERIAKTLLEEVKEVDHFEQHVRSITRDGDKLVIVVTQKNNHNGENQHRTVTIWIHERNGELLIQSMEYK — higher, 0.504
- DEEKKARQLLKRWLRAVSQNDPKKLSEQMDPNARVEYGDKELHGMHQIENWLREQLKHIDHIEIDVKDMTVNGNEAQVQFRFVNRHNGKEDTKEARMQAELHNGTVKVRRIRYS — higher, 0.389
- DEEKKARRWFESFIEVFRSNDPDQAKKLADPNVRAEYGDKHYHGREEFMKHFITLAERVDHVDIELHSLRIDGNRIVMNMRYRLRYNGRTESNEVTVILVIKNGKLHIQEVREG — higher, 1.41
- DEEKKDKASEMVRAEQKNNPDKVNELADKNAKFNIGDKRIHGREHLKKTIETENREARYDIDEVDVRAKNGKVDVKMSMRVRHNGRPDRFHVEQTVRFNNGKAQEVTRHKKK — lower, -0.299
- DEEKKRRVAQKIAKLVQTGDPRDVETMMRDDVRANYGDKEYHGRENVSTFADRQVKKVDHRHIESVKNSGEQLVVDMRFVINGHNVRFRISFEFHNGKIKQANFDPKAIEHQDS — lower, -0.176
- DEEKLAENFLETMQNIAREGDEEKMADLFDPNAEIQVGDKSYQGREDVLELNRREFERYDHVRIDVKRFSVKNGQLDAEMSVTFSVNGKTDSHDQRLRATLHNGRLKAKHRTNG — higher, 0.476
- DEEKLDKVMKMVRDALQKGDQEKAQKLVKPDGHFQVGDQELNGYDQVRKYYKKVKDLGAEAHVKKTDVRGNTFRLEYDARLKGVQVTIRLEVRVKDEKVDEARADMTEDYAKHVTKG — higher, 0.53
- DEEKLDVARQYFEAVERGDEDRALELVDKDVRVDVGEKRVRGREEAKTQIRREEEEIRLRVEHVDFTAKGDRVRVRVVQVENINGRPVRFHYTMNMTMHNGRIKRIDVQIPEEVQEQLRG — lower, -0.146
- DEEKLEELAEEILQMLQTGDPDQARRMADEDVRAEYGDKQYTGKERLVEVVRKLKDRADHARINSFEVEGENIVADFVMVVDGQERRVRMTARVENGRIKEVRVKTS — higher, 0.96
- DEEKLEKFARNFEKVVERGDEDKFRSQADPNVQAVIGDKRIHGDEHLAHWMNKLRSHIDHFRVVDMRVQGEEIHLDVKFVVDGRRVRFIIEIEVHNGHITRFTVHVTDEEKWRRREK — higher, 0.335
- DEEKLHTIAKKAADIVQSGDEEKIIRLADPNAEMRIGDQELHGMDDAKRVLHEFMKRVDHVSVKTWHVQGNRIRLDVKFEVNGRDIRVELDITIENGEIDSMEFDPRARDAQKT — higher, 0.183
- DEEKLKKVIDTLQKALQNGNPDEIVKVIDKTVKFKLGDETFEGQEDARKVIKRLRDQGMEFHVERQEVTGDQAKVQTVWHAGDVEMHMHVTYDVDGDKVKRVEVRWDEEAKKAVKKG — higher, 0.562
- DEEKLKRIWQEIMDVWRTNNEDRMTNLFDENATVVVGDETYRGREDVNKALHEFNKRVDNINVTRLDVDGDKANLKAELTYNGRTIDITLRITLRNGRIEEMTVDPEVMKTARS — higher, 0.71
